The subject of the data set is metmyoglobin.

With “recombinant malate dehydrogenase (MDH) of Bacillus natto with C-terminal 6x His-tag”, the “metmyoglobin reduction activity (change in A406 with NADH)” value is recorded as “the activity of MDH was not found”. Turning to “recombinant putative NAD(P)H nitroreductase (yodC) of Bacillus natto with C-terminal 6x His-tag”, the “metmyoglobin reduction activity (change in A406 with NADH)” value is reported as “the activity of yodC was confirmed”.

(Values after patent US20130058911.)
